In the Human Domainome abundance scans (Beltran et al. 2025):

B1: Serine/threonine-protein kinase LATS1, residues 98 to 141; numbered along this chain, O95835 (parent)
chain: TSEVNPQMLQDLQAAGFDEDMVIQALQKTNNRSIEAAIEFISKM
B2: Histone H1t, residues 44 to 112; numbered along this chain, P22492 (parent)
chain: VSKLITEALSVSQERVGMSLVALKKALAAAGYDVEKNNSRIKLSLKSLVNKGILVQTRGTGASGSFKLS

Variants of: B1
Assay: abundance fitness (aPCA) (normalised: wild type 0, dead -1); higher = more abundant; growth selection in yeast, the domain comes from the species named
Conditions: Homo sapiens

Abundance fitness of substitutions, site by site:
E35: D 0.005; F -0.468; G -0.173; H -0.151; K -0.169; L -0.541; M -0.307; N -0.204; P -0.164; Q -0.141; R -0.263; S -0.115; T -0.158; V -0.468; W -0.473
A36: C -0.169; D -0.068; F -0.77; G -0.195; H -0.206; K -0.21; L -0.388; M -0.316; N -0.327; P -0.36; Q -0.267; R -0.404; S -0.073; T -0.258; W -0.825; Y -0.632
A37: C -0.376; D -0.43; G -0.401; H -0.621; K -1.03; L -0.728; N -0.446; P -0.42; Q -0.428; R -0.649; S -0.441; T -0.391; V -0.453; W -1.17; Y -0.762
I38: A -0.048; C -0.119; E -0.007; F -0.42; G -0.169; H -0.203; K 0.055; L -0.078; M -0.016; P -0.147; Q -0.021; R 0.003; S -0.113; V -0.024; W -0.339
E39: A -0.103; C -0.361; D -0.113; F -0.884; G -0.217; H -0.084; K -0.115; M -0.286; N -0.111; P -0.483; Q -0.166; R -0.224; S -0.146; T -0.237; V -0.717; W -0.728
F40: A -0.018; C -0.016; D -0.055; E 0.103; G -0.163; I -0.171; K -0.177; M -0.042; P -0.157; Q -0.068; R -0.248; S -0.131; T -0.16; V -0.097; W 0.075
I41: A -0.282; C -0.225; D -0.11; E -0.165; F -0.525; G -0.282; H -0.272; K -0.255; L -0.046; M 0.046; N -0.429; P -0.232; Q -0.286; R -0.361; S -0.217; V -0.411; W -0.648; Y -0.434
S42: A -0.023; C -0.258; D 0.033; E 0.136; F -0.229; G -0.002; H 0.054; K 0.055; L -0.248; P -0.401; Q 0.127; R 0.048; T 0.103; V -0.219; W -0.14; Y -0.142
K43: A 0.034; C -0.156; D -0.03; E 0.133; G -0.036; H 0.169; I -0.435; L -0.117; M -0.071; N -0.038; P -0.333; R -0.027; S -0.035; T -0.004; V -0.135; Y -0.194
M44: A -0.053; C -0.037; E 0.052; G -0.063; L -0.11; P -0.148; Q 0.055; R -0.057; S -0.04; V 0.011; W -0.232

Variants of: B2
Assay: as above
Conditions: Homo sapiens

Abundance fitness, by site and new letter:
V1: A -0.12; F -0.054; H -0.877; I 0.005; K -0.403; L -0.536; M -0.16; N -0.557; P 0.071; S -0.512; T -0.337; Y -0.269
S2: A -0.404; C -0.438; D 0.251; E 0.566; F -0.383; H -0.474; I -0.234; K 0.251; L -0.398; M -0.316; N 0.051; P -0.456; Q -0.344; T -0.145; V -0.652; Y -0.185
K3: C -0.411; D -0.144; E 0.001; F -0.595; G -0.45; I -0.656; L -0.474; M -0.583; N -0.139; R -0.251; S -0.297; V -0.431; W -0.691; Y -0.717
L4: W -0.506
I5: A -0.705; C -0.415; D -1.04; E -1.13; F -0.372; G -0.942; H -1.46; L -0.244; M -0.33; N -0.664; P -1.16; Q -1.28; R -1.24; T -0.985; V -0.267; W -0.46
T6: A -0.536; C -0.181; D -0.299; E -0.112; F -0.578; G -0.629; H -0.05; I -0.071; K 0.092; L -0.222; M -0.098; N -0.031; P -1.24; Q -0.002; R -0.04; S -0.168; V -0.153; W -0.737; Y -0.298
E7: A -0.996; C -0.493; D -0.101; F -0.808; G -1.05; I -0.739; K -0.12; L -0.89; M -0.63; N -0.118; Q -0.429; R 0.032; S -0.497; V -0.826; W -0.275; Y -0.589
A8: C -0.137; D -1.13; E -0.719; F -0.217; G -0.522; H -0.324; I -0.032; K -0.411; L -0.275; M -0.163; N -0.531; P -1.06; Q -0.584; R -0.335; S -0.42; T -0.447; W -0.026; Y -0.345
L9: C -0.401; F -0.061; H -0.915; I 0.045; K -0.194; M -0.145; N -0.826; Q -0.697; S -0.66; T 0.03; V -0.301; Y -0.1
S10: C -0.43; D -0.029; E -0.41; F -0.655; G 0.027; H -0.275; I -0.316; K -0.17; L -0.261; M -0.175; N -0.024; P -0.835; Q -0.165; R -0.129; T 0.016; V -0.167; W -0.788; Y -0.286
V11: C -0.077; D -0.138; E -0.106; F -0.138; G -0.101; I -0.185; K 0.053; L -0.129; M -0.255; N -0.144; R -0.013; S -0.061; W -0.04; Y -0.027
S12: A -0.007; C 0.024; D 0.019; E -0.429; F -0.038; G 0.019; H -0.353; I 0.042; K -0.275; L -0.005; M -0.093; N -0.202; P -0.486; Q -0.034; R -0.511; V 0.095; W -0.416; Y -0.48
Q13: A -0.286; C -0.233; D -0.222; E -0.05; F -0.613; G -0.211; K 0.014
